Experiment: yeast display, Sf9 membrane polyspecificity reagent, FACS + sequencing; frameworks hold sequencing errors
How it was run: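 After 36–48 hours of galactose induction, yeast (Saccharomyces cerevisiae BJ5465) displaying a synthetic nanobody library were stained at 4 °C for 1 hour with 10% biotinylated, detergent-solubilized Sf9 membrane reagent. Streptavidin microbeads enriched the stained cells before FACS sorting into low and high (top ~1%) gates on anti-HA and streptavidin fluorescence. Each clone's polyreactivity label reflects its gate of origin.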

Sequence | polyreactivity (PSR sort gate)
QVQLVESGGGLVQAGGSLRLSCAASGSIFYVYAMGGYRQAPGKERELVAAISKSGGSTYYADSVKGRFTISRDNAKNTVYLQMNRLKPEDTAVYYCAAYFSYGSIIEDYWGQGTQVTVSS | low polyreactivity
QVQLVESGGGLVQAGGSLRLSCAASGRTFTGYAMGWYRQAPGKERELVASISSRGGSTYYADSVKGRFTISRDNAKNTVYLQMNSLKPEDTAVYYCAADSVRHTYSWWYAVDYWGQGTQVTVSS | high polyreactivity
QVQLVESGGGLVQAGGSLRLSCAASGIIYWVNAMGWYRQAPGKERELVAVINRGTYYADSVKGRFTISRDNAKNTVYLQMNSLKPEDTAVYYRYAYTSTTEYDYWGLGTQVTVSS | low polyreactivity
QVQLLESGGGLVQAGGSLRLSCAASGNTLRYNVMGWYRQAPGKERELFAAISGGGSTSYADSVKGRFTISRDNAKNTVYLQMNSLKPEDTAVYYCAKRSFVGGRGRDSDYRGQGTQVTVSS | low polyreactivity
QVQLVESGGGLVQAGGSLRLSCAASGRIFLGNAMGWYRQAPGKESELVAAITYSGRSTYYADSVKGRFTISRDNAKNTVYLQMNSLKPEDTAVYYSAARQYWTTDLPFQRYYYWGQGTQVTVSS | low polyreactivity
QVQLVESGGGLVQAGGSLRISCAASGIIFYRNAMGWYRQAPGKERELVAVITASGGNTYYADSVKGRFTISRDNAKNTVYLQMNSLKPEDTAVYYCNRELTSPRRWHVSRAYDYWGQGTQVTVSS | low polyreactivity
QVQLVESGGGLVQAGGSLRLTCAASGSTFKQNVMGWYRQAPGKERELVAAITSGGSTNYADSVKGRFTISRDNAKNTVYLQMNSLKPEDTAVYYCNKDTSGIYLDDYWGQGTQVTVSS | low polyreactivity
QVQLVESGGGLVQAGGSLRLSCAASGRIFYDNTMGWYRQAPGKERELVAAISVSGGRTYYADSVKGRFTISRDNAKNTVYLQLNSLKPEDTAVYYCAADRGGEYWGQGTQVTVSS | high polyreactivity
QVQLVESGGGLVQAGGSLRLSCAASGRTFWFYGMGWYRQAPGKEREFVARISASGGSTYYADSVKGRYTISRDNAKNTVYLQMNSLKPEDTAVYYCARDTPWRYYYWGQGTQVTVSS | high polyreactivity
QVQLVESGGGLVQAGGSLRLSCAASGSILVDYAMGWYRQAPGKERELVASITRDGSTNYADSVKGRFTISRDNAKNTVYLQMNSLKPEDTAVYYCAAKYAWRLLEMYYWGQGTQVTVSS | low polyreactivity
QVQLVESGGGLVQAGGSLRLSCAASGITFTAYAMGWYRQAPGKEREFVAVITRSGGSTYYADSVKGRFTISRDNAKNTVYLQMNSLKPEDTAVYYCAAETSYRYGWYYYWGQGTQVTVSS | high polyreactivity
QVQLVESGGGLVQAGGSLRLSCAASGSTFSLNDMGWYRQAPGKERELVAVISSSTGITYYADSVKGRFTISRDNAKNTVYLQMNSLKPEDTAVYYCNADKWEVYYTRMYYWGQGTQVTVSS | low polyreactivity
QVQLVESGGGLVQAGGSLRLSCADSGSGGYAMGWYRQAPGKERELVAAIDNGGSTYYADSVKGRFTISRDNAKNTVYLQMNSLKPEDTAVYYCAAAYRDYTQVTAGDYWGQGTQVTVSS | low polyreactivity
QVQLVESGGGLVQAGGSLRLSCAASGRIFFYYVMGWYRQAPGKERELVAAITRSGGSTYYADSVKGRFTISRDNAKNTVYLQMNSLKPEDTAVYYCSVGDGFEYDWGQGTQVTVSS | low polyreactivity
QVQLVESGGGLVQAGGSLRLSCAASGSTFPGYAMGWYRQAPGKERELVAAINGRGGSTYYADSVKGRFTISRDNAKNTVYLQMNSLKPEDSAVYYCAAFVGSRSAKYIKYWGQGTQVTVSS | high polyreactivity
QVQLVESGGGLVQAGGSLRLSCAASGFTFYRYAMGWYRQAPGKERELVAAITRTGGSTYYADSVKGRFTISRDIAKNTVYLQMISLKPEDTAVYYCAARVHGTGTLKYPNYYWGQGTQVTVSS | high polyreactivity
QVQLVESGGGLVQAGGSLRLSCAASGRTWFYAMGWYRQAPGKERELVAVISRSGASTNYADSVKGRFTISRDNAKNTVYLQMNSLKPEDTAVYYCAAGWRYRGGYWYPRLEYGYWGQGTQVTVSS | high polyreactivity
QVQLVESGGGLVQAGGSLRLSCASSGRTFAYNAMGRYRQAPGKERELVAAITSSGGSTYYADSVKGRFTISRDNAKNTVYLQMNSLKPEDTAVYYCASYVRPDYYAIHVDYWGQGTQVTVSS | low polyreactivity
QVQLVESGGGLVQAGGSLRLSCADSGRTFRNYAMGRYRQAPGKERELVATITSSGASTYYADSVKGRFTISRDNAKNTVYLQMNSLKPEDTAVYYCAARPYTGRYFLGYYYWGQGTQVTVSS | high polyreactivity
QVHLVESGGGLVQAGGSLRLSCAASGSIFGSYAMGWYRQAPGKERELVAAITIADITYYADSVKGRFTISRDNAKNTVNLQMNSLKPEDTAVYYCNAYWGWRDSWYYYWGQGTQVTVSS | low polyreactivity
QVQLVESGGGLVQAGGILRLSCAASGIILYINAMGWYRQAPGKERELVAAITSDGSTNYADSVKGRITISRDNAKYTVYLQMNSLKPEDTAVYYCAVDLPWGTGVSQYPESDYWGQGTQVTVSS | low polyreactivity
QVQIVESGGGLVQAGGSLRLSCAPSGSNIDYNDMGRYRQAPGKEWELVAAISGRGTRTYYADSVKGRFTISRDNAKNTVYLQMNSLKPEDTAVYYCAASTRGRYWGRFGYWGQRTQVTVSS | high polyreactivity

Sequence | polyreactivity (PSR sort gate)
QVQLVESGGGLVQAGGSLRLSCAASGSTLGYYAMGWYRQAPGKERELVAAISWRTDSTYYADSVKGRFTISRDNAKNTVYLQMNSLKPEDTAVYYCAAQGAYDTYYAQTYGYWGQGTQVTVSS | low polyreactivity
QVQLVESGGGLVQAGGSLRLSCAASGRTFWYNTMGWYRQAPGKERELVAAISTGGSTNYADSVKGRFTISRDNAKNTVYLQMNSLIPEDTAVYYCAALIYYWSGRPRFDQARDYDYWGQGTQVTVSS | low polyreactivity
QVQLVESGGGLVQAGGSLRLSCAASGSTFRLYAMGWYRQAPGKERELVAAISTRGSSTYYADSVKGRFTISRDNAKNTVYLQMNSLKPEDTAVYYCAADAYFIYSRYWYDYWGQGTQVTVSS | high polyreactivity
QVQLVESGGGLDQAGGSLRLSCAASGSIFNFYALGWYRQAPGKERELVAAISWSAGSTYYADSVKGRFTISRDYAKNTVYLQMNSLKPEDTAVYYCAADRYAYDWIQYYYHFLYDYWGQGTQVTVSS | low polyreactivity
QVQLVESGGGLVQAGGSLRLSCAATGIISQYYAMGWYRQQPGKESELDAAISRSGGSTFYADSVKGRFTISRDNAQNTVYLQMNSLKPEDTAVYYCNAESRFRPYTSRYDYWGQGTQVTVSS | high polyreactivity
QVQLVESGGGLVQAGGSLRLSCAASGRTFWRNDMGWYRQAPGKERELVARISWSGGSTYYADSVKGRFTISRDNAKNTVYLQMNSLKPEDTAVYYCAKYYPGRSAFSDGNYWGQGTQVTVSS | low polyreactivity
QVQLVESGGGLVQAGGSLRLSCASSGRTFRYNAMGWYIQAPGKESELVAAISRSGGRTYYADSVKGRFTISRDNAKNTVYLQMNSLKPEDTAVYYCAAYYYTAGDSSSRYDYWGQGTQVTVSS | high polyreactivity
QVQLVESGGGLVQAGGSLRLSCAASGFIFGIYAMGWYRQAPGKEREFVAAMTGSAGSTYYADSVKGRFTISRDNAKNTVYLQMNSLKPEDTAVYYCAAVLRTHRYGGYNYWGQGTQVTVSS | low polyreactivity
QVQLVESGGGLVQAGGSLSLSCAASGLTFTGNAMGWYRQAPGKERELVAAISWSGGSTYYADSVKGRYTISRDNAKNTVYLQMNSLKPEDTAVYYCGDPDSRYDYWGQGTQVTVSS | high polyreactivity
QVQLVESGGSLVQEGGSLRLSCAASGRTYNVMGWDRQAPGKERELVAAITWGGGSTHYADSVKGRFTISRDNAKNTVYVQMNSLKPEDTAVYYCAADLLYKSTRVDYWGQGTQVTVSS | low polyreactivity
KVKLVESGGGLVQAGGSLRLSCAASGITSWYYAMGWYRQAPGKERELVAAITSDGSTYYADSVKGRFTISRDNAKNTVYLQMNSLKPEVTAVYYCAAERDYWIPDSYLVGMDFWGLGTQVTVSS | low polyreactivity
QVQLVESGGGLVQAGGSLRLSCAASGGIFYYNAMGWYRQAPGKERELLAAITFSGGGTYYADSVKGRFTISRDNAKNTVYFQMNSLKPEDTAVNYCAAKFYRYAWFLGYDYWGQGTQVTVSS | high polyreactivity
QVQLVESGGGLVQAGGSLRLSCAASGRTFWYYAMGWYRQAPGKEREFVAAISWSGGSTYYADSVKGRFTISRDNAKNTVYFQMNSLKPEDTAVYYCNAGNYRDKSYYWGQGTQVTVSS | low polyreactivity
QVQLVESGGGLVQAGGSLRLSCAASGFIFGYYTMGWYRQAPGKERELVAGISYSGGSTYYADSVKGRFTISRDNAKNTVYLQMNSLKPEDTAVYYCNRADYRASYSGQGSYDYWGQGTQVTVSS | high polyreactivity
QVQLVESGGGLVQAGGSLRLSCAASGLIFNYYAMGWYRPAPGKERELVAAIYNGGSTYADSVKGRFTISRDNAKNTVYLQMNSLKPEDTAVYYCNTDDPDRDNDVKSIDYDYWGQGTQVTVSS | low polyreactivity
QVQLVESGGGLVQAGGSLRLSCAASGFIFYYNAMGWYRQAPGKERELVATIRGSGGSTYYADSVKGRFTISRDNAKNTVYLQMNSLKPEDTAVYYCATTIYGLTSRLYYWGQGTQVTVSS | high polyreactivity
QVQLVESGGGLVQAGGSLRLSCAASGFIFGINAMGWSRQAPGKERELVAAISRSGGRTYYADSVKGRCTISRDNAKNTVYLQMNSLKPEDTAVYYCAADKASYTNYDGDSWGQGTQVTVSS | high polyreactivity
QVQLVESGGGLVQAGGSLRLSCAASGSIFATYGMGWYRQAPGKERELVAAITSSGGSTYYADSVKGRFTISRDNAKNTVYLQMNSLKPEDTAVYYCAADSYIIWYGTVVSYGEDSWGQGTQVTVSS | low polyreactivity
QVQLVESGGGLVQAGGSLRLSCAASGRIFGVNAMGWYRQAPGKERELVAAISSGDSTYYADSVKGRFTISRDNAKNTVYLQMTCLKPEDTAVYYCAADVLGTTTTVGGFNYWGQGTQVTVSS | low polyreactivity
QVQLVESGGGLVQAGGSLRLSCAASGRTIGYYAMGWYRQAPGKERELVAAITWSGGNTYYADSVKGRFTISRDNAKNTVYLQMNSLKPEDTAVYYCNALYLWGMDYWGQGTQVTVSS | low polyreactivity
QVQLVESGGGLVQAGGSLRLSCAASGRILYGYTMGWYRQAPGKEREFVARITRRGGRTNYADSVKGRFTISRDNAKNTVYLQMNSLKPEDTAVYYCAADPIRDSWWQYFQDGREYDYWGQGTQVTVSS | low polyreactivity

Source: the nanobody polyreactivity screen of Harvey et al. (2022)
